Measurements from the supplement of paper PMC7877785.
± gives the uncertainty stated by the source.

Assay: self-splicing fitness, log relative to wild type (ln ratio); higher = more splicing; Tetrahymena group I intron in knt gene, E. coli kanamycin selection, DiMSum; sequences stand for … in CUCUCU…GGAGGGAAAAGUUAUCAGGCAUGCACCUGGUAGCUAGUCUUUAAACCAAUAGAUUGCAUCGGUUUAAAAGGCAAGACCGUCAAAUUGCGGGAAAGGGGUCAACAGCCGUUCAGUACCAAGUCUCAGGGGAAACUUUGAGAUGGCCUUGCAAAGGGUAUGGUAAUAAGCUGACGGACAUGGUCCUAACCACGCAGCCAAGUCCUAAGUCAACAGAUCUUCUGUUGAUAUGGAUGCAGUUCACAGACUAAAUGUCGGUCGGGGAAGAUGUAUUCUUCUCAUAAGAUAUAGUCGGACCUCUCCUUAAUGGGAGCUAGCGGAUGAAGUGAUGCAACACUGGAGCCGCUGGGAACUAAUUUGUAUGCGAAAGUAUAUUGAUUAGUUUUGGAGUACUCGUGGUCG
Outline: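 Fitness was computed with DiMSum as the error-weighted combination of replicate fold changes, kanamycin versus none, each normalised to wild type. The library randomised all eight intron nucleotides of the P1ex region, with the intron placed in the knt kanamycin-resistance gene on pET-22b(+) in E. coli BL21(DE3). Six replicate transformations were grown overnight at 37°C or 30°C on LB agar with or without 25 μg/mL kanamycin, plus 100 μg/mL carbenicillin, 50 μM IPTG and 0.2% rhamnose. Pooled colonies were amplicon-sequenced on an Illumina HiSeq 2500.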

Sequence	self-splicing fitness (ln) (30 °C)	self-splicing fitness (ln) (37 °C)
GAUCAGCAAUAUUACGCGAG	-0.684 ± 0.07	-1.15 ± 0.073
GCAUAGCAAUAUUACGGGGC	-3.43 ± 0.23	-2.72 ± 0.32
AACAAGCAAUAUUACGAACA	-1.16 ± 0.11	-0.392 ± 0.11
GUAGAGCAAUAUUACGGCCU	-0.447 ± 0.11	-0.0153 ± 0.14
UGCUAGCAAUAUUACGGUGC	-3.92 ± 0.27	-2.38 ± 0.26
AAGCAGCAAUAUUACGUUAG	-3.74 ± 0.18	-2.52 ± 0.15
AGAUAGCAAUAUUACGCUCU	-3.31 ± 0.23	-1.46 ± 0.21
CUUAAGCAAUAUUACGAUGA	-3.04 ± 0.43	-0.126 ± 0.22
CACCAGCAAUAUUACGGUAU	-2.42 ± 0.072	-1.03 ± 0.067
AUUUAGCAAUAUUACGGAUC	-2.84 ± 0.22	-0.766 ± 0.19
GAAGAGCAAUAUUACGUUCU	-3.88 ± 0.29	-2.8 ± 0.27
GGGGAGCAAUAUUACGCUGG	-2.98 ± 0.47	-0.764 ± 0.47
CGGAAGCAAUAUUACGUAGG	-0.48 ± 0.078	-1.38 ± 0.12
UACAAGCAAUAUUACGUCGA	-1.78 ± 0.08	-0.266 ± 0.082
GUAAAGCAAUAUUACGCCAA	-0.7 ± 0.17	-0.982 ± 0.26
UUACAGCAAUAUUACGGCAU	-2.01 ± 0.074	-0.552 ± 0.087
UACGAGCAAUAUUACGCCCG	-3.1 ± 0.18	-2.02 ± 0.17
UUUUAGCAAUAUUACGGAGA	-1.93 ± 0.35	-1.62 ± 0.27
AGGUAGCAAUAUUACGCAGC	-3.808 ± 0.038	-2.67 ± 0.046
GCUUAGCAAUAUUACGCAUA	-1.58 ± 0.14	-0.612 ± 0.11
CACGAGCAAUAUUACGGCAG	-1.03 ± 0.11	-0.837 ± 0.14
UAAAAGCAAUAUUACGAACU	-0.332 ± 0.23	-0.647 ± 0.2
CCGGAGCAAUAUUACGGAGA	-3.99 ± 0.39	-2.24 ± 0.25
GGGGAGCAAUAUUACGGCGG		-0.394 ± 0.41

Sequence	self-splicing fitness (ln) (30 °C)	self-splicing fitness (ln) (37 °C)
AGCCAGCAAUAUUACGAGCA	-0.932 ± 0.11	0.49 ± 0.14
GGGCAGCAAUAUUACGGGUU	-1.58 ± 0.12	-0.384 ± 0.12
ACGCAGCAAUAUUACGCUCU	-0.517 ± 0.067	0.303 ± 0.076
AUUUAGCAAUAUUACGGCGG	-2.31 ± 0.17	-0.525 ± 0.17
CAUGAGCAAUAUUACGGAGC	-3.21 ± 0.25	-3.46 ± 0.35
GAGCAGCAAUAUUACGAUGA	-2.62 ± 0.25	-1.03 ± 0.14
GAAAAGCAAUAUUACGAGUU	-1.15 ± 0.073	0.164 ± 0.094
UACUAGCAAUAUUACGAGUC	-2.67 ± 0.31	-1.09 ± 0.14
AAGAAGCAAUAUUACGUACU	0.124 ± 0.082	0.141 ± 0.099
ACUCAGCAAUAUUACGUUUG	-2.36 ± 0.095	-1.94 ± 0.14
CGCCAGCAAUAUUACGGUCA	-0.14 ± 0.066	0.542 ± 0.092
GCCAAGCAAUAUUACGGUUG	-3.23 ± 0.099	-2.54 ± 0.14
CAAAAGCAAUAUUACGAUGG	-0.431 ± 0.062	-0.139 ± 0.079
GCCGAGCAAUAUUACGAGUG	-2.22 ± 0.14	-2.16 ± 0.13
UCCAAGCAAUAUUACGCGAA	-2.43 ± 0.13	-0.748 ± 0.12
CGGUAGCAAUAUUACGUUUA	-3.46 ± 0.2	-2.03 ± 0.13
GGGGAGCAAUAUUACGCGUC	-3.26 ± 0.43	-1.47 ± 0.23
UCAGAGCAAUAUUACGUGAG	-0.959 ± 0.054	-0.838 ± 0.081
CAGCAGCAAUAUUACGUACG	-0.121 ± 0.08	0.866 ± 0.11
GGGUAGCAAUAUUACGUGCG	-0.234 ± 0.097	-0.0569 ± 0.12
UAUUAGCAAUAUUACGGCUC	-0.997 ± 0.4	0.595 ± 0.44
CAAGAGCAAUAUUACGUGUU	-3.47 ± 0.15	-3.58 ± 0.26
AGCUAGCAAUAUUACGCGAG	-2.38 ± 0.22	-3.12 ± 0.32
AGUCAGCAAUAUUACGUUUU	-1.49 ± 0.074	-0.278 ± 0.088

Sequence	self-splicing fitness (ln) (30 °C)	self-splicing fitness (ln) (37 °C)
UAGAAGCAAUAUUACGCAGG	-2.7 ± 0.15	-2.19 ± 0.15
GCCAAGCAAUAUUACGUGAC	-1.89 ± 0.13	-0.468 ± 0.12
GUCGAGCAAUAUUACGGAGU	-3.59 ± 0.19	-0.791 ± 0.094
GAGGAGCAAUAUUACGAGUU	-3.46 ± 0.35	-2.05 ± 0.21
GAUAAGCAAUAUUACGGUAG	-3.17 ± 0.23	-2.35 ± 0.27
GGUAAGCAAUAUUACGGGUC	-2.39 ± 0.24	-1.81 ± 0.31
ACGUAGCAAUAUUACGUGUG	-3.26 ± 0.14	-3.01 ± 0.16
CGAAAGCAAUAUUACGUCAA	-3.45 ± 0.34	-2.11 ± 0.25
UGAAAGCAAUAUUACGACCC	-1.44 ± 0.31	
GGGCAGCAAUAUUACGGCUU	-0.964 ± 0.15	-1.14 ± 0.16
CGUCAGCAAUAUUACGUCGC	-3.45 ± 0.34	-1.88 ± 0.36
UCAGAGCAAUAUUACGGCUC	-4.58 ± 0.34	-3.36 ± 0.25
AUAUAGCAAUAUUACGAGUU	-3.19 ± 0.18	-1.46 ± 0.15
UUCUAGCAAUAUUACGGCGC	-2.84 ± 0.25	-2.7 ± 0.24
AUCAAGCAAUAUUACGACGU	0.145 ± 0.071	-0.14 ± 0.067
ACCGAGCAAUAUUACGUGUG	-2.5 ± 0.08	-1.79 ± 0.079
CUACAGCAAUAUUACGCCCA	-2.99 ± 0.27	-1.85 ± 0.23
UCAUAGCAAUAUUACGUGGA	-2.02 ± 0.11	-1.24 ± 0.093
UCUUAGCAAUAUUACGACUG	-2.53 ± 0.23	-1.69 ± 0.23
ACCCAGCAAUAUUACGCUCA	-0.397 ± 0.065	-0.324 ± 0.087
ACUCAGCAAUAUUACGACCU	-0.248 ± 0.12	0.216 ± 0.13
GCUCAGCAAUAUUACGAGCC	-3.98 ± 0.31	-3.64 ± 0.39
ACACAGCAAUAUUACGUGCU	-1.34 ± 0.055	-0.611 ± 0.065
GGCCAGCAAUAUUACGCGGC	-3.46 ± 0.24	

Sequence	self-splicing fitness (ln) (30 °C)	self-splicing fitness (ln) (37 °C)
AUAUAGCAAUAUUACGCUUA	-1.53 ± 0.16	-0.0426 ± 0.15
CAAGAGCAAUAUUACGGACA	-3.46 ± 0.26	-2 ± 0.32
CGGUAGCAAUAUUACGAUGC	-3.7 ± 0.2	-0.598 ± 0.13
GCGCAGCAAUAUUACGUCGU	-3.02 ± 0.12	-2.75 ± 0.18
CUUGAGCAAUAUUACGGAAU	-2.85 ± 0.41	-2.3 ± 0.48
UAAGAGCAAUAUUACGAUCA	-2.23 ± 0.29	-0.554 ± 0.19
UUACAGCAAUAUUACGCACU	-0.534 ± 0.12	-0.572 ± 0.14
UGAGAGCAAUAUUACGGGGA	-3.16 ± 0.43	-2.77 ± 0.27
UUAGAGCAAUAUUACGUAAA	-2.69 ± 0.17	0.396 ± 0.13
AUGCAGCAAUAUUACGCUGG	-2.5 ± 0.17	-2.68 ± 0.25
UGAUAGCAAUAUUACGUGGU	-2.4 ± 0.21	-2.73 ± 0.23
GAGAAGCAAUAUUACGCGUU	-2.08 ± 0.23	-0.752 ± 0.18
UACAAGCAAUAUUACGCCGU	-2.13 ± 0.16	-1.62 ± 0.18
UACUAGCAAUAUUACGAGUG	-1.07 ± 0.083	-0.536 ± 0.1
GCAUAGCAAUAUUACGUCCC	-1.38 ± 0.22	0.182 ± 0.21
AGGUAGCAAUAUUACGGGCG	-1.03 ± 0.015	-0.573 ± 0.034
UAUGAGCAAUAUUACGGCUG	-1.01 ± 0.15	-0.14 ± 0.19
GUAUAGCAAUAUUACGAGAG	-1.56 ± 0.22	-2.9 ± 0.34
GGAUAGCAAUAUUACGGUGA	-2.43 ± 0.1	-1.14 ± 0.091
UGGCAGCAAUAUUACGGCGU	-1.32 ± 0.12	-0.678 ± 0.14
AAAUAGCAAUAUUACGCGAA	-1.42 ± 0.14	-1.59 ± 0.16
UUCAAGCAAUAUUACGAUAG	-1.81 ± 0.14	-0.986 ± 0.17
AAACAGCAAUAUUACGACUC	-0.613 ± 0.077	-0.502 ± 0.098
UGCGAGCAAUAUUACGUGUG	-2.78 ± 0.18	-2.15 ± 0.15
